Experimental findings from publication PMC8393709 are described below.

The target in assay [1] is HPV16 E6 Y43E/F47R, full length (RLuc- and YFP-tagged). The experiment in a line: BRET. The note with it: parent: est. 150; read off a plot. On the technique in general: BRET reads energy transfer from a luciferase to a nearby fluorophore.
Assay [2] deals with HPV16 E6N Y43E/F47R, amino acids 1 to 80 (RLuc- and YFP-tagged). The experiment in a line: BRET. The note with it: HEK 293T cells; RLuc- and YFP-tagged E6N fragments (amino acids 1 to 80); parent: est. 160; read off a plot.
Assay [3] has the same target. The experiment in a line: BRET binding curve. The note with it: HEK 293T cells; value at the highest YFP/RLuc point of each curve (mutant x about 860, E6N x about 880); non-specific level (E6N + UL44) about 65; parent: est. 250; read off a plot.

Regarding “HPV16 E6, wild-type, full length (RLuc-E6 and YFP-E6) (from UniProt P03126) Y43E; F47R”, the response in assay [1] was 53 a.u. (mBR).

Turning to “HPV16 E6N, N-terminal domain of E6, amino acids 1 to 80 (RLuc-E6N and YFP-E6N) Y43E; F47R”, the results for the response in assay [2] and in assay [3] were 70 a.u. (mBR) and 120 a.u. (mBR), respectively.
